Measured values: paper PMC9371921, “Strand annealing and motor driven activities of SMARCAL1 and ZRANB3 are stimulated by RAD51 and the paralog complex” (Nucleic Acids Research, 2022)

Experiments:
FLAG-SMARCAL1 = biological target: T1, FLAG-SMARCAL1 (human, UniProt Q9NZC9 1-954); assay: pull-down; MBP-RAD51 (bait) from bacterial soluble extract bound to amylose resin and washed; purified FLAG-SMARCAL1, FLAG-ZRANB3 or FLAG-BCDX2 (1 μg, prey) in 150 μl IP buffer (25 mM Tris-HCl pH 7.5, 100 mM NaCl, 3 mM EDTA, 0.5 mM DTT, BSA, 10% glycerol), 1 h at 4°C; eluted with maltose; Western blot with anti-MBP and anti-FLAG; settings: both partners purified
T1 construct: also called SMARCAL1-WT; SMARCAL1 wild type
T1 sequence (looked up): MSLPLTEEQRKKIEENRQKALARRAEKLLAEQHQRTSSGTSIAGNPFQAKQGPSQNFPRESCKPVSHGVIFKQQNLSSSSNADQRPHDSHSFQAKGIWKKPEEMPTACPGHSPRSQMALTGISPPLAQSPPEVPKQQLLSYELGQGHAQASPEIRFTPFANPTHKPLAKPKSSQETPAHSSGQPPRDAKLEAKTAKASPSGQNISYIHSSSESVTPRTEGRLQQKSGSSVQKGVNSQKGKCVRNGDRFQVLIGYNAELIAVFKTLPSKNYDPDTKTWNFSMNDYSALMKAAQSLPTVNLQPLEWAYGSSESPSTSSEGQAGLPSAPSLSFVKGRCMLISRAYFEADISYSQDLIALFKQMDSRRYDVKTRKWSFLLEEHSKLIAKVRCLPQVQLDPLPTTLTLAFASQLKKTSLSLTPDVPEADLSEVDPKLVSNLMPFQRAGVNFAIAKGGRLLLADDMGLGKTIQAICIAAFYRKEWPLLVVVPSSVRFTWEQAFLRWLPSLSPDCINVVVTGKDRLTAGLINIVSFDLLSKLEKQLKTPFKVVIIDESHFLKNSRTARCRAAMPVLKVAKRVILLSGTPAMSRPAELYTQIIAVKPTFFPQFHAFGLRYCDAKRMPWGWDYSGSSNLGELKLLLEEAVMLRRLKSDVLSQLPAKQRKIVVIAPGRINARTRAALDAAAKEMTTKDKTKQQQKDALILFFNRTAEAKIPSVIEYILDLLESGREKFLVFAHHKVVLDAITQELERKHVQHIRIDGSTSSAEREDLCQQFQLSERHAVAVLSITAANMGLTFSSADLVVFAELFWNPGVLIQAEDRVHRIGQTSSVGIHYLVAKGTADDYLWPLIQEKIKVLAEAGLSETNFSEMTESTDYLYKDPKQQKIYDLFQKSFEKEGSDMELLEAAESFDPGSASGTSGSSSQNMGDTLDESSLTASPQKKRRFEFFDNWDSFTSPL

FLAG-ZRANB3 = biological target: T2, FLAG-ZRANB3 (human, UniProt Q5FWF4 1-1079); assay: as above; settings: both partners purified
T2 construct: also called ZRANB3 WT
T2 sequence (looked up): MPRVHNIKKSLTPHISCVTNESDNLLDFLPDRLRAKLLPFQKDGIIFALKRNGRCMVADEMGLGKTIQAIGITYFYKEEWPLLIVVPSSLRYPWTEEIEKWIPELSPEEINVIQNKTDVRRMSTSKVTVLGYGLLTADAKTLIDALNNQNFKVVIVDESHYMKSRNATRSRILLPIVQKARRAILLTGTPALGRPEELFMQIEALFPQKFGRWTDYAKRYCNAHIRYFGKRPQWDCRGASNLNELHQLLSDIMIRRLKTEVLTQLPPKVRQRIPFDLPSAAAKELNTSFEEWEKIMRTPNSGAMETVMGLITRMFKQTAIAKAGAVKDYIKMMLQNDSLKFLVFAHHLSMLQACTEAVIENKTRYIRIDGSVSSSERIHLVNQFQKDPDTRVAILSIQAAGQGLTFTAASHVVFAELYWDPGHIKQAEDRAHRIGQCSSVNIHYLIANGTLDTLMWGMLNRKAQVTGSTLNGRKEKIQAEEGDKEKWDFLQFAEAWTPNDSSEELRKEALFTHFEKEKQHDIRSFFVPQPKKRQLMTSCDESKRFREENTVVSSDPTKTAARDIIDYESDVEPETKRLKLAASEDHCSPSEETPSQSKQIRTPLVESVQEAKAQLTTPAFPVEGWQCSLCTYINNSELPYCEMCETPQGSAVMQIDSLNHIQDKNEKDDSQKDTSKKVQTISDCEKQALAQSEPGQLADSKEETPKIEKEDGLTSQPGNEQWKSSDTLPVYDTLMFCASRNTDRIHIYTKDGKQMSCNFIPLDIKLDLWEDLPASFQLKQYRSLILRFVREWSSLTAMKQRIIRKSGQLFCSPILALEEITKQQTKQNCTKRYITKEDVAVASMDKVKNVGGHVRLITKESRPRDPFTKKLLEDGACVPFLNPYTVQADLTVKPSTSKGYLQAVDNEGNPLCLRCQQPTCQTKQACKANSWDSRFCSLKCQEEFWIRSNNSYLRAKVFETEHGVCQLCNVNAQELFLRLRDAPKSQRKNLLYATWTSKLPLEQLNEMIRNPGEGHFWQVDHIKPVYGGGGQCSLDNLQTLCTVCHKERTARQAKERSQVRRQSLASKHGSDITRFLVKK

binding result (FLAG-SMARCAL1): binds | binding result (FLAG-ZRANB3): binds
B1: MBP-RAD51 (natural protein, human, UniProt Q06609 1-339, looked up)
chain: MAMQMQLEANADTSVEEESFGPQPISRLEQCGINANDVKKLEEAGFHTVEAVAYAPKKELINIKGISEAKADKILAEAAKLVPMGFTTATEFHQRRSEIIQITTGSKELDKLLQGGIETGSITEMFGEFRTGKTQICHTLAVTCQLPIDRGGGEGKAMYIDTEGTFRPERLLAVAERYGLSGSDVLDNVAYARAFNTDHQTQLLYQASAMMVESRYALLIVDSATALYRTDYSGRGELSARQMHLARFLRMLLRLADEFGVAVVITNQVVAQVDGAAMFAADPKKPIGGNIIAHASTTRLYLRKGRGETRICKIYDSPCLPEAEAMFAINADGVGDAKD
notes: In the pull-downs the MBP tag was kept; the RAD51 of the DNA annealing assays was the same construct with the MBP cut off by PreScission protease and purified on HiTrap Q; not shown: MBP, N-terminal, kept
